What was measured:
[1] = target: cynomolgus FcRn (cynomolgus) (UniProt Q8SPV9); assay: SPR pH 6.0, FcRn immobilised
human FcRn (human) = human FcRn (human) (UniProt P55899); assay: SPR pH 6.0, FcRn immobilised
mouse FcRn (mouse) = mouse FcRn (mouse) (UniProt Q61559); assay: SPR pH 6.0, FcRn immobilised
[2] = target: FcRn of the FcRn column (Roche, Order No. 8128057001); assay: FcRn affinity chromatography, pH gradient
human CCR8 (human) [3] = target: human CCR8 (human) (UniProt P51685); assay: cell-based or functional assay
human CCR8 (human) [4] = target: human CCR8 (human) (UniProt P51685); assay: FACS, BODIPY-labelled antibody, HuT78
[5] = target: cynomolgus CCR8 (cynomolgus); assay: FACS, CHO-cynoCCR8
Chain of cynomolgus CCR8 (cynomolgus) (O97665 other isoform, or with tags, fused parts or gaps): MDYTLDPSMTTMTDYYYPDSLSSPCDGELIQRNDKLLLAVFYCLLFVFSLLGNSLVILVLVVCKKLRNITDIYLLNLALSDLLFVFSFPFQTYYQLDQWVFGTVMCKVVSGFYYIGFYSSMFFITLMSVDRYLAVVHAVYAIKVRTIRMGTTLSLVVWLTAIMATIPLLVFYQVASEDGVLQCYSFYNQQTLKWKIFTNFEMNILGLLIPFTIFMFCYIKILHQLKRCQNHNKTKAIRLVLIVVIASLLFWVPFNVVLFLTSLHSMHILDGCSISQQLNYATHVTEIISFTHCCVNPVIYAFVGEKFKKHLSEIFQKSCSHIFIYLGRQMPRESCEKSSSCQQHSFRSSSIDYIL

human CCR8 (human) [6] = target: human CCR8 (human) (UniProt P51685); assay: FACS, CHO-hCCR8
murine CCR8 (mouse) = murine CCR8 (mouse) (UniProt P56484); assay: FACS, BODIPY-labelled antibody, BW5147.3
Chain of murine CCR8 (mouse) (P56484 whole entry): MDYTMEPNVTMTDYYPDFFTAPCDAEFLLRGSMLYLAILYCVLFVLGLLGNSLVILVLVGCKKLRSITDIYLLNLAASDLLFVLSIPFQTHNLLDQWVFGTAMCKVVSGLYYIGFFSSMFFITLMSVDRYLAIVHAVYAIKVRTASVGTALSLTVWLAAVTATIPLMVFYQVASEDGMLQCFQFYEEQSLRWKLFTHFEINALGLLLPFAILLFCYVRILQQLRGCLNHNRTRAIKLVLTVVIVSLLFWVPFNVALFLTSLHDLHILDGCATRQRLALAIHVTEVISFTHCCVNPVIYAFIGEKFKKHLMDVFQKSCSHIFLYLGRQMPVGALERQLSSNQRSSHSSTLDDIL

Chain of Ustekinumab (antibody) (HC): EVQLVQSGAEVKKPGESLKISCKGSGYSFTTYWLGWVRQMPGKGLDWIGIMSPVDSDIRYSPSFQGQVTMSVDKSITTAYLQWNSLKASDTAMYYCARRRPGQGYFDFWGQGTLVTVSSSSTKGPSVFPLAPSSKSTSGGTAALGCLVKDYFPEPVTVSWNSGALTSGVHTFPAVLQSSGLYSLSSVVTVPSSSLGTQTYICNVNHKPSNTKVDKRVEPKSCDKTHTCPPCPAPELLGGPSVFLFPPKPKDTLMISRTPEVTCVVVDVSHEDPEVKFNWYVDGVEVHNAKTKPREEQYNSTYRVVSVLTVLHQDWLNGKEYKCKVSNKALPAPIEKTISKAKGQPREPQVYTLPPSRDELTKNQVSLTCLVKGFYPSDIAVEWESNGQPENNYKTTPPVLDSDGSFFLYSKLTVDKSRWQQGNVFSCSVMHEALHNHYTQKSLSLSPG
Chain of Ustekinumab (antibody) (LC): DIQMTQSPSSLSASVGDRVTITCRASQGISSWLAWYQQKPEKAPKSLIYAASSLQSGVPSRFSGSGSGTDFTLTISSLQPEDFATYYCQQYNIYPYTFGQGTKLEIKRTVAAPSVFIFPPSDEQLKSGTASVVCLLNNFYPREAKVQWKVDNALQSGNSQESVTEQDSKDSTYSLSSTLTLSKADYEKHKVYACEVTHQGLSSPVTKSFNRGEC
Chain of human FcRn (human) (P55899 24-297 limits assumed, form in doubt): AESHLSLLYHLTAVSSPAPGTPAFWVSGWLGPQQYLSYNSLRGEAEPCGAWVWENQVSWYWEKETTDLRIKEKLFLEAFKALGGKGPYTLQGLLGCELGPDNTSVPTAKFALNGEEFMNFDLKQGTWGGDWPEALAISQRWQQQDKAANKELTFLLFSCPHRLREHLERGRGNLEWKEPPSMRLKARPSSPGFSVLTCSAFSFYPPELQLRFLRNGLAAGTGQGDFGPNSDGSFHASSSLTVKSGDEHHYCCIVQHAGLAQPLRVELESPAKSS
Chain of FcRn of the FcRn column (Roche, Order No. 8128057001) (P55899 24-297, chain 1 of 2): as the sequence (P55899 24-297 limits assumed, form in doubt) above
Chain of FcRn of the FcRn column (Roche, Order No. 8128057001) (P61769 21-119, chain 2 of 2, further chain): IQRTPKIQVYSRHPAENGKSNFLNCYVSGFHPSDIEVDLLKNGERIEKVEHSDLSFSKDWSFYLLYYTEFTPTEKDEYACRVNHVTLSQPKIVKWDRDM
Chain of cynomolgus FcRn (cynomolgus) (Q8SPV9 24-297 limits assumed, form in doubt): as the sequence (P55899 24-297 limits assumed, form in doubt) above, with N39D, E44Q, G99S, S189G, S190N, L217M, S269T counted along it
Chain of mouse FcRn (mouse) (Q61559 22-297 limits assumed, form in doubt): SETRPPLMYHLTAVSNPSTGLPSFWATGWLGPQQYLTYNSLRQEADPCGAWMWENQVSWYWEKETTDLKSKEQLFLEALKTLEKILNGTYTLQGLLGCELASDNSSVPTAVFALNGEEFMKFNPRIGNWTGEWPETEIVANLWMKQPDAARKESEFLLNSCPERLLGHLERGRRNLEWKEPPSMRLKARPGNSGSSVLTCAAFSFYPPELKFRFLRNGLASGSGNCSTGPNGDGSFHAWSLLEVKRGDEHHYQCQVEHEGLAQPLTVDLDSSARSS

Row | Substance | Kd [1] [nM] | Kd (human FcRn (human)) [nM] | Kd (mouse FcRn (mouse)) [nM] | pH at Elution [2] [pH] | other results
1 | Briakinumab (antibody) | 160 | 230 | 560 | 7.85 | –
2 | CCL1 (human) (from UniProt P22362 24-96) (ligand) | – | – | – | – | EC80, β-arrestin signaling (DiscoverX assay) (human CCR8 (human) [3]): 0.02 µg/mL
3 | L263G8 (antibody) | – | – | – | – | IC50, Ca flux assay (human CCR8 (human) [3]): 1.26 nM; IC50, inhibition of CCL1 induced β-arrestin signaling (human CCR8 (human) [3]): 13.8 nM; FACS HuT78 [MFI] (human CCR8 (human) [4]): 40 MFI; EC50 [5]: 132 nM; EC50 (human CCR8 (human) [6]): 0.31 nM
4 | SA214G2 (antibody) | – | – | – | – | FACS mBW5147.3 [MFI] (murine CCR8 (mouse)): 48 MFI
5 | Ustekinumab (antibody) | 260 | 200 | 71 | 7.22 | –

Reference: patent US20230250178A1
